Reference: US20250223354A1 (BIOTHEUS, published 2025)

B1: anti-TIGIT monoclonal antibody 55796-G1 (antibody, V domains shown)
VH: QLQLQESGPGLVKPAETLSLTCTVSGGSISSYDHYWTWIRQPPGKGLEWIGTVYYSGSTFHNPSLKSRVTIPVDTSKNQFSLKLSSVTAADTAVYYCARVGPDVSHPPFDYWGQGTLVTVSS
VL: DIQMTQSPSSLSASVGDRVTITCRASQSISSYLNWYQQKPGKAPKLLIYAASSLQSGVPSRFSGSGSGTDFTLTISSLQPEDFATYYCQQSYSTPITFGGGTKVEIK
notes: Wild-type human IgG1 heavy chain constant region, human kappa light chain constant region
B2: anti-TIGIT monoclonal antibody 55796-G1LALA (antibody, V domains shown)
VH: B1 VH
VL: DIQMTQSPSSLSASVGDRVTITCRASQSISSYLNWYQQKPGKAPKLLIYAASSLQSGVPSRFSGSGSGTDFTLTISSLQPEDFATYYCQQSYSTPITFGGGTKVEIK
notes: Human IgG1 heavy chain constant region modified by L234A, L235A; human kappa light chain constant region; HEK293

Key:
[1] = biological target: T1, mouse TIGIT overexpressed on CHO cells (mouse, UniProt P86176 29-249); assay: flow cytometry, CHO-muTIGIT cells
T1 construct: whole, on cells; also called CHO-muTIGIT cells
T1 sequence (looked up): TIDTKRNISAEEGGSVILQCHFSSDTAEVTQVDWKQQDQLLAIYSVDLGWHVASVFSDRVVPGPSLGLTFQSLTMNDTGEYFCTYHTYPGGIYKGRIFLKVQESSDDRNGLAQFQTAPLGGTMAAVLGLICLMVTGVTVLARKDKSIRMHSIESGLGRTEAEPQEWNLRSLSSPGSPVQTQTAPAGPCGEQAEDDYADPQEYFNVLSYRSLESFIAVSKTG
From the text: (§1) Specifically, CHO cells overexpressing human TIGIT (CHO-huTIGIT cells), CHO cells overexpressing cynomolgus TIGIT (CHO-cynoTIGIT cells) and CHO cells overexpressing mouse TIGIT (CHO-muTIGIT cells) were generated by transfection of the pCHO1.0 vector (purchased from Invitrogen) with cDNA encoding human TIGIT, cynomolgus TIGIT and mouse TIGIT cloned into the multiple cloning site (MCS), respectively, followed by pressure screening. The overexpressing cells were expanded and adjusted to an appropriate cell density, and added to a 96-well flow cytometry plate. After centrifugation, the cells were added with a gradiently diluted sample to be tested, and incubated at 4° C. for 30 minutes. The cells were washed twice with PBS, and added with a fluorescent secondary antibody correspondingly diluted to an appropriate concentration, then incubated at 4° C. for 30 minutes, and washed twice with PBS. Cells were resuspended with PBS, and detected on a CytoFlex flow cytometer, and the corresponding MFI was calculated. Graphpad software was used for graphical analysis to obtain EC₅₀ values.

human TIGIT-his protein = biological target: T2, human TIGIT-his protein (human, UniProt Q495A1 22-141); assay: BLI (ForteBio), IgG on AHQ sensor, 100 nM TIGIT-his, monovalent, 1:1 model
T2 construct: not shown: his tag
T2 sequence: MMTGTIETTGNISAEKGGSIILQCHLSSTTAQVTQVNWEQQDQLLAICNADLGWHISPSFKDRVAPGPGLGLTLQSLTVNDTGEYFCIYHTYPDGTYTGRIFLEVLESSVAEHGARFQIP
Description: (§2) Biofilm layer optical interference technology (ForteBio) was used to determine the binding and dissociation […] values of the anti-TIGIT monoclonal antibodies obtained in Example 1 to human, cynomolgus monkey and mouse TIGIT. Fortebio affinity measurements were performed according to existing methods (Este, P et al., High throughput solution-based measurement of antibody-antigen affinity and epitope binning. Mabs, 2013.5(2): p 270-8).
(§3) The antibody-loaded sensor was incubated in 100 nM TIGIT-his antigen to the plateau phase, and then the sensor was transferred to an analysis buffer and incubated for at least 2 minutes for measuring dissociation rate. The kinetic analysis was performed using a 1:1 binding model.

[2] = biological target: T3, cynomolgus monkey TIGIT-his protein (cynomolgus monkey); assay: as above
T3 construct: also called Cynomolgus TIGIT-his; not shown: his tag
Description: as §2, §3

mouse TIGIT-his protein = biological target: T4, mouse TIGIT-his protein (mouse, UniProt P86176 29-148); assay: as above
T4 construct: not shown: his tag
T4 sequence: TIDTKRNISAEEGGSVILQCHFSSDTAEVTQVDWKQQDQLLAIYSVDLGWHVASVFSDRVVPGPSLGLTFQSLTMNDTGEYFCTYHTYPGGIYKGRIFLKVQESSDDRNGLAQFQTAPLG
Description: as §2, §3

[3] = biological target: T5, human TIGIT expressed on cells (human, UniProt Q495A1 22-244); assay: flow cytometry, competition with human CD155-mouse IgG2a Fc (2 ug/mL) on CHO-huTIGIT cells
T5 construct: whole, on cells; cDNA encoding human TIGIT in pCHO1.0 for CHO cells; also called CHO-huTIGIT cells
T5 sequence (looked up): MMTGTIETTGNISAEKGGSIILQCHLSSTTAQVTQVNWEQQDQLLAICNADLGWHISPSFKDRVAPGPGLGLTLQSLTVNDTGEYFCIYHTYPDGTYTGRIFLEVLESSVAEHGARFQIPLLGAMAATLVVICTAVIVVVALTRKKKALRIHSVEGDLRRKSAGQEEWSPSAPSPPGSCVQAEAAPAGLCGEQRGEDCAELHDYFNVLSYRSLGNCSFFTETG
Description: (§4) Specifically, the CHO-huTIGIT cells were expanded and adjusted to a cell density of 2×10⁶ cells/mL, added to a 96-well flow plate at 100 μL/well, and centrifuged for later use. The purified monoclonal antibodies were diluted 3-fold with PBS starting at 400 nM for a total of 12 concentration gradients. The diluted sample was added at 60 μL/well to the cells-carrying 96-well flow plate, and incubated at 4° C. for 30 minutes. […] APC-conjugated goat anti-mouse IgG antibody diluted 100-fold with PBS was added at 100 μL/well, incubated at 4° C. for 30 minutes, and washed twice with PBS. Cells were resuspended with PBS at 100 μL/well, and detected on a CytoFlex flow cytometer, and the corresponding MFI was calculated.

[4] = biological target: T1, mouse TIGIT overexpressed on CHO cells; assay: flow cytometry, competition with mouse CD155-mouse IgG2a Fc (2 ug/mL) on CHO-muTIGIT cells
Description: as §4, with “The CHO-muTIGIT” for “Specifically, the CHO-huTIGIT”, “purified” for “purified monoclonal”, “gradients.” for “gradients. The diluted sample was added at 60 μL/well to the cells-carrying 96-well flow plate, and incubated at 4° C. for 30 minutes.”, “calculated. Graphpad software was used for graphing analysis to obtain IC₅₀ values.” for “calculated.”

[5] = biological target: T5, human TIGIT expressed on cells; assay: flow cytometry on CHO cells overexpressing human TIGIT, median fluorescence intensity PE-A; unit from the concentration axis
From the text: as §1

[6] = biological target: T1, mouse TIGIT overexpressed on CHO cells; assay: flow cytometry on CHO cells overexpressing mouse TIGIT, median fluorescence intensity PE-A; unit from the concentration axis
From the text: as §1

[7] = biological target: T5, human TIGIT expressed on cells; assay: flow cytometry blocking assay: binding of human CD155 protein with mouse IgG2a Fc tag to CHO cells overexpressing human TIGIT, median fluorescence intensity APC-A; unit from the concentration axis
Description: as §4

T3 sequence (chain, as listed by the source): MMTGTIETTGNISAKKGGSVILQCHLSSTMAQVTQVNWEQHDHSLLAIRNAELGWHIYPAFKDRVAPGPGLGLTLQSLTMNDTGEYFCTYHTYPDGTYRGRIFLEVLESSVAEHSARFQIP

Binder | EC50 [1] [nM] | Kd (human TIGIT-his protein) [nM] | Kd [2] [nM] | Kd (mouse TIGIT-his protein) [nM] | IC50 [3] [nM] | IC50 [4] [nM] | EC50 [5] [nM] | EC50 [6] [nM] | IC50 [7] [nM]
B1 | 2.96 | 0.199 | 4.72 | 96 | 0.24 | 1.5 | 0.962 | 2.96 | 0.236
B2 | 3.36 | 0.21 | 4.9 | 61 | 0.37 | 1.56 | 0.845 | 3.36 | 0.373
